Data taken from US20200207859A1 (priority 2017, published 2020).

Key:
Assay in all cases: Cell binding assay (FACS), anti-CD74 antibody without conjugation
[1] = molecular target: T1, CD74 (Homo sapiens, UniProt P04233); design: unit: geometric MFI
T1 construct: endogenous in cells; host or cells: B-lymphoma, multiple myeloma and leukemia cell lines
T1 sequence (P04233 1-296): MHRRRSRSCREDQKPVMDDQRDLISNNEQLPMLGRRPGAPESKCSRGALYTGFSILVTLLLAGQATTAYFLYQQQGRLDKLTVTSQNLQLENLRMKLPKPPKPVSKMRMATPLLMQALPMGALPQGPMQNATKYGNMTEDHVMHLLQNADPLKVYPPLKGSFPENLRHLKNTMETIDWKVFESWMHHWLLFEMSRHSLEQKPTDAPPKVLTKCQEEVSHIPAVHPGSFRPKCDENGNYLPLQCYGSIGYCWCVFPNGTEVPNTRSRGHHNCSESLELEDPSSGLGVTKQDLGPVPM
Experimental: (§1) Cell lines were maintained in RPMI, high glucose (Cellgro-Mediatech; Manassas, Va.) supplemented with 20% heat-inactivated fetal bovine serum (Hyclone; Thermo Scientific; Waltham, Mass.), 2 mM glutamax (Invitrogen; Carlsbad, Calif.) and 1× Pencillin/streptomycin (Cellgro-Mediatech; Manassas, Va.). Cells were harvested and re-suspended in FACS buffer (DPBS buffer supplemented with 1% bovine serum albumin). […] Cells were washed twice with ice-cold FACS buffer and incubated with 5 ug/ml Alexa 647 labeled donkey anti-human IgG antibody (Jackson Immune-Research) on ice for another 60 mins. Unstained cells and cells stained with secondary antibody alone were used as controls. Samples were then washed twice using FACS buffer and analyzed using a BD FACS Canto system. Mean fluorescence intensities were fitted using non-linear regression analysis with one site specific binding equation on GraphPad Prism. Data was expressed as geometric mean fluorescent intensity vs. antibody concentration in nM.

[2] = molecular target: T1, CD74
Experimental: as §1

[3] = molecular target: T1, CD74; design: key: NK = no killing; NB = no binding
Experimental: as §1

B1: anti-CD74 (antibody, V domains shown)
VH: QVQLVESGGGVVQPGRSLRLSCAASGFNFSDYGMHWVRQAPGKGLEWVAVIWYDGSISYYADSVKGRFTISRDNSKNTLYLQMNSLRAEDTAVYYCARGGTVEHGAVYGTDVWGQGTTVTVSS
VL: DIQMTQSPSSVSASVGDRVTITCRASQGIGSWLAWYQQKPGKAPKLLIYAADRLQSGVPSRFSGSGSGTDFTLTISSLQPEDFATYYCQQYHTYPLTFGGGTKVEIK
modifications: non-natural residues
- Cell Binding Bmax ([1]; ARD (MM) cells): 190
- Cell Binding Bmax ([1]; ARP-1 (MM) cells): 341
- Cell Binding Bmax ([1]; BDCM (AML) cells): 3059
- Cell Binding Bmax ([1]; JVM-13 (CLL) cells): 447
- Cell Binding Bmax ([1]; RPMI-6666 (HL) cells): 3879
- Cell Binding Bmax ([1]; RPMI-8226 (MM) cells): 119
- Cell Binding Bmax ([1]; SU-DHL-6 (NHL) cells): 1565
- Cell Binding Bmax ([1]; SUP-B15 (ALL) cells): 680
- Kd ([2]; ARD (MM) cells): 2.6 nM
- Kd ([2]; BDCM (AML) cells): 4.5 nM
- Kd ([2]; JVM-13 (CLL) cells): 2.5 nM
- Kd ([2]; RPMI-6666 (HL) cells): 2.3 nM
- Kd ([2]; RPMI-8226 (MM) cells): 3.6 nM
- Kd ([2]; SU-DHL-6 (NHL) cells): 2 nM
- Kd ([2]; SUP-B15 (ALL) cells): 3.5 nM
- Cell Binding Bmax ([3]; K562 (CML) cells): NB
- Cell Binding Bmax ([3]; OPM-2 (MM) cells): NB
